Assay results from the supplement of paper PMC10567573.

B1: C22orf15 (parent)
chain: PRGRAHLLPNPYQQDFLGLPEELR

Variants of: B1
Assay: protein stability index of a GFP-peptide fusion (GPS, HEK-293T) (PSI 1-6); higher = more stable
Conditions: c terminus: a fixed tail appended
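Further: lentivirally expressed fusions sorted by FACS into six bins by GFP to DsRed ratio, PSI derived from sequencing read proportions per bin multiplied by bin number.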

Protein stability index: each site, then its substitutions
L17: P 4.3 | R 4.03 | S 4.2 | W 3.37 | Y 3.6 | N 4.28
F16: M 4.15 | A 4.12 | W 3.65 | N 4.36 | L 4.23 | V 4.17 | S 3.83 | D 4.92 | G 4.4 | I 4.01 | Y 4.17 | T 4.17 | P 4.12
R24: G 3.8 | C 3.29 | A 3.05 | F 3.17 | M 2.97 | L 3.47 | W 2.11 | V 3.63 | P 4.03 | N 3.94 | K 4.12 | D 4.3 | T 4.11 | H 3.3
P20: I 2.75 | K 3.38 | N 3.62 | D 4.07 | Y 2.42 | M 2.78 | G 3.14 | F 2.43 | C 2.85 | E 4.08 | W 2.26 | Q 3.53 | V 2.46 | T 3.42 | H 3.37 | L 2.76
E22: F 3.27 | R 3.76 | G 3.61 | H 3.42 | N 3.65 | T 4.23 | D 4.06 | W 2.93 | M 2.64 | V 3.11 | C 3.22 | L 2.3 | Y 2.52 | K 3.47 | A 3.47
L19: T 4.26 | C 4.26 | W 3.75 | N 4.1 | I 3.57 | E 4.5 | M 3.53 | V 4 | P 4.22 | K 4.28 | Q 4.69 | A 4.13 | G 4.05 | R 3.9
Q13: P 4.21 | T 3.64 | I 3.1 | G 4.1 | Y 3.46 | F 3.1 | W 2.7 | M 3.42 | N 3.66 | D 4.1 | H 3.74 | R 3.75 | C 3.39 | V 3.59 | K 3.65 | L 3.43 | A 3.7 | S 3.56
G3: M 2.7 | Q 3.45 | K 3.16 | A 4.32 | D 4.03 | T 2.66 | L 3.51 | V 3.93 | F 3.79 | S 3.52 | H 3.79 | R 3.52 | P 3.77
H6: W 2.85 | P 3.93 | T 3.87 | G 4.26 | V 3.54 | D 4.4 | S 3.81 | R 3.71 | I 3.65 | F 2.99 | K 3.87 | L 3.44 | Y 3.02 | Q 3.75 | M 4.04
R2: K 3.75 | L 3.76 | S 4.15 | P 4.18 | M 4.08 | C 2.26 | Y 3.5 | W 3.33 | H 3.87 | A 4.04 | N 3.46 | Q 4.24 | V 3.81 | T 4.22 | D 3.44 | F 3.31
R4: K 3.36 | D 4.25 | L 3.59 | H 4.06 | I 3.24 | A 4.23 | E 3.96 | G 4.27 | V 3.86 | N 3.99 | F 3.77 | W 2.96 | Y 3.57 | C 2.85 | Q 3.73 | M 3.42 | S 3.81
Q14: H 3.92 | I 3.19 | G 3.67 | N 3.91 | Y 2.98 | R 3.19 | L 3.54 | W 2.93 | M 3.56 | S 3.96 | A 3.73 | E 4.47
L7: W 3.24 | M 4.18 | C 3.84 | I 3.8 | V 4.12 | K 4 | Y 3.92 | A 4.23 | E 4.62 | F 3.84 | P 4.06 | H 3.9 | T 5.36 | Q 3.86
G18: I 3.49 | M 3.98 | F 3.24 | S 3.94 | T 4.05 | N 4.25 | W 2.98 | V 3.73 | A 4.25 | Y 3.34 | P 3.71 | K 4.13
E21: R 3.15 | A 3.54 | W 2.9 | T 2.81 | C 3.3 | I 2.89 | M 3.14 | V 3.1 | Q 3.06 | G 3.61 | K 3.56 | L 3.02 | F 3.42
L23: T 3.94 | N 4.01 | A 4.24 | Q 4.51 | F 3.66 | H 4.68 | V 3.68 | K 4.63 | W 3.45 | S 4.17 | I 4.09
P9: A 3.66 | Q 3.84 | F 2.94 | N 3.77 | C 2.66 | S 3.88 | R 3.18 | L 3.35 | W 2.53 | V 3.71 | M 3.8 | I 2.88
P11: E 4.74 | T 4.1 | R 3.33 | K 4.04 | Y 3.56 | V 3.5 | M 3.72 | A 3.41 | N 4.24 | I 3.55 | D 4.12 | L 3.42 | W 2.71 | Q 4.35 | C 3.51
N10: K 3.77 | V 4.14 | G 4 | P 4.07 | Q 4.12 | T 4.05 | Y 3.46 | H 4.06 | R 3.53 | F 3.35 | W 2.88 | S 4.29 | A 3.95
L8: Q 4.24 | K 3.98 | E 3.96 | S 3.93 | I 3.94 | P 4 | N 4.09 | F 3.49 | D 4.6 | H 3.86 | M 3.95 | A 3.58 | T 3.23 | C 4.14
D15: N 3.31 | W 2.98 | K 3.3 | M 2.97 | G 3.44 | Y 3.2 | T 3.44 | A 3.38 | R 3.74 | I 3.22 | E 3.74 | H 3.17 | F 2.96 | L 2.99 | V 3.36
P1: S 3.23 | T 3.52 | N 3.69 | G 3.75 | L 2.64 | V 2.83 | W 2.92 | C 2.22 | A 3.34 | E 3.96 | Q 3.72 | Y 3.11 | M 2.93 | I 2.37
A5: F 2.69 | V 3.63 | E 3.9 | N 4.1 | C 2.69 | W 2.62 | H 3.78 | M 3.48 | L 3.12 | G 3.63 | Q 4.07 | T 4.05 | Y 2.98 | D 4.25 | P 3.56 | K 3.32
Y12: S 4.54 | I 4.36 | L 3.85 | M 4.61 | G 4.87 | E 4.54 | H 4.02 | T 4.44 | F 3.5 | W 2.87 | C 3.84 | V 4.17 | A 4.51 | N 4.61 | D 4.53 | K 4.11
